# Test results as given in patent US10106582B2, “Complex-formation-modulating agents and uses therefor” (Factor Therapeutics Limited, priority 2012, dated 2018).
# How the values were obtained:
# MCF-7 cells = experiment: Transwell migration assay, IGF-I+IGFBP-3+VN (TRI)-stimulated MCF-7 cell migration; type: cell-based, human
# Protocol: FIG. 6 is a graphical representation showing MCF-7 cell migration in response to VN peptides. MCF-7 cells were seeded onto the upper-surface of a Transwell inserts coated on the under-surface with treatments containing IGF-I+IGFBP-3+VN (TRI; 10 nM) with or without increasing concentrations of either peptide P7, P8 or Pneg. Migration was assessed after 15 hours. Data is represented as percentage of change in migration compared to the TRI only control. Error bars indicate standard error mean.
# This assay has been repeated three times with treatments tested in triplicate wells in each replicate experiment.
# The breast cancer epithelial cell line MCF-7 was used for this assay. Migration was assessed by measuring relative number of cells migrating through 8-μm pore Transwell membranes in response to substrate-bond proteins complexes. IGFBP-3 was allowed to bind either peptide P7, P8 or a combination of P7 and P8 for 2 hours. IGF-I was later added to this protein mix which was then added to Transwells pre-coated with VN. Post-overnight incubation, unbound proteins were removed, Transwells washed twice and cells seeded onto the upper chamber. Cells migrated to the under-surface over 15 hours were indirectly quantified using crystal violet staining.
# IGFBP-3 = target: T1, IGFBP-3 (Homo sapiens, UniProt P17936); experiment: VN-peptide array: binding of IGFBP-3 to immobilized overlapping 16-mer VN peptides; conditions: spot stronger than negative controls = positive hit
# T1 construct: purchased GroPep
# Description: (§1) The inventors designed small-molecule VN-peptides that could potentially disrupt the formation of the IGF-I:IGFBP:VN trimeric or the IGF-II:VN dimeric complexes by binding to the IGFBPs and/or IGF-II and preventing their association with VN within the complex. To design peptides, the binding sites of IGFBP-3/-5 and IGF-II on VN were first determined using VN-peptide arrays. The entire VN protein sequence, excluding the signal peptide (residues 1-19), was divided into overlapping 16-mer peptides with 3AA frameshift/offset (for peptide sequences refer to Table 6) and immobilized onto cellulose membranes (peptide spotting was outsourced to PepMetric Technologies Inc). For a schematic of the arrangement of VN peptides and controls refer to FIG. 2. The resultant peptide arrays were incubated either with IGFBP-3, IGFBP-5 or IGF-II ligands, probed with the respective antibodies, the membranes developed using ECL, and imaged using the ChemiDoc™ XRS system (BioRad). The spots on the membrane were analysed using TotalLab array quantification software (TotalLab Ltd, Newcastle, England) identifying positive peptide spots by comparing each spot to the combined intensities of the negative controls.
# (§2) The entire VN protein sequence, excluding the signal peptide (residues 1-19), was divided into overlapping 16-mer peptides with 3 amino acid (AA) frameshift/offset. This yielded 148 overlapping peptides covering the entire VN sequence (residues 20-478) (Table 6) with a resolution of 3 AA. Peptide synthesis and spotting onto a cellulose membrane were outsourced to PepMetric Technologies Inc. (Richmond, BC, Canada). For a diagrammatic illustration of the strategy used to divide an example amino acid sequence into peptides and to spot them onto the membrane, please refer to http://www.pepmetric.com/html/Pep-Overlap.html. The VN-overlapping peptides were generated using FMOC (9-fluorenylmethoxycarbonyl) Solid-Phase SPOT synthesis onto PEG-grafted amine-functionalized cellulose membrane (Whatman® 540 filter paper). The peptides were spotted onto the cellulose membrane in a 10×16 grid with each peptide being 10˜50 nM in concentration with >70% purity. Finally, these membranes were acetylated in order to cap the free ends of the spotted peptides preventing them from degradation during shipping and storage.
# (§3) Along with the VN-peptides these membranes were also spotted with a positive control (i.e., universal binding peptides tested by the manufacturer to be positive for antibodies from goat, mouse, rat and chicken) and a negative control (ie. non-binding peptides as well as BSA) controls. For a schematic of the arrangement of VN-peptides and controls refer to FIG. 2 and for the sequence of each peptide corresponding to the grid number refer to Table 6. Four such replicate membranes were prepared and stored at room temperature in a clip sealed plastic bag. Long-term storage was at −20° C.
# (§4) Methanol or ethanol was used to enhance the rehydration of peptide spots that might be hydrophobic. The peptides spotted onto the membranes were activated by incubating in 3 mL of 70% ethanol for five mins. The membranes were subsequently washed three times, 10 minutes each, in 10 mL TBS (Tris Buffered Saline; 8 g NaCl, 0.2 g KCl and 6.1 g Tris Base into 1000 mL of milliQ water, pH 7) with gentle rocking. Membrane blocking was performed by incubating in 10 mL casein-based membrane blocking buffer (MBS; Sigma-Aldrich) overnight at 4° C. The following day, the membranes were washed twice, 10 minutes each, in 10 mL TBS-T (TBS+0.05% Tween-20; pH 7).
# (§5) Ligands used to test binding to VN-peptides were IGFBP-3, IGFBP-5 and IGF-II. For ligand binding, four separate solutions of 1 μg/mL ligand in 10 mL MBS buffer were prepared and each membrane was incubated in one of the four ligand solutions overnight at 4° C., with gentle rocking. […] The following day, the membranes were washed three times, 10 minutes each, in 10 mL TBS-T. […]
# IGFBP-5 = target: T2, IGFBP-5 (Homo sapiens, UniProt P24593); experiment: VN-peptide array: binding of IGFBP-5 to immobilized overlapping 16-mer VN peptides; conditions: spot stronger than negative controls = positive hit
# T2 construct: purchased GroPep
# Description: as §1
# The entire VN protein sequence, excluding the signal peptide (residues 1-19), was divided into overlapping 16-mer peptides with 3 amino acid (AA) frameshift/offset. […]
# IGF-II = target: T3, IGF-II (Homo sapiens, UniProt P01344); experiment: VN-peptide array: binding of IGF-II to immobilized overlapping 16-mer VN peptides; conditions: spot stronger than negative controls = positive hit
# T3 construct: purchased GroPep
# Description: as §1, §2, §3, §4, §5
# [1] = increasing peptide concentrations added to TRI (IGF-I+IGFBP-3+VN; 10 nM), 15 hours
# T1 sequence (P17936 28-291): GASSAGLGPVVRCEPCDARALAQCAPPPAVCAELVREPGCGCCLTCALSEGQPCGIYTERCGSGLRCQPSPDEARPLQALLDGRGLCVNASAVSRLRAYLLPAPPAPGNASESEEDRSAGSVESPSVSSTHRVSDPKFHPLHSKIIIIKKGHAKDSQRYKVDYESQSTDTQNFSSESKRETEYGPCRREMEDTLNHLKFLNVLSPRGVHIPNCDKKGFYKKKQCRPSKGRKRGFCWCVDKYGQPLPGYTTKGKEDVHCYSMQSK
# T3 sequence (P01344 25-91 limits assumed): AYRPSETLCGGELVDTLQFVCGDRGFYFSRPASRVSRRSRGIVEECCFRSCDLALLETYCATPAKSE
# T2 sequence (P24593 21-272): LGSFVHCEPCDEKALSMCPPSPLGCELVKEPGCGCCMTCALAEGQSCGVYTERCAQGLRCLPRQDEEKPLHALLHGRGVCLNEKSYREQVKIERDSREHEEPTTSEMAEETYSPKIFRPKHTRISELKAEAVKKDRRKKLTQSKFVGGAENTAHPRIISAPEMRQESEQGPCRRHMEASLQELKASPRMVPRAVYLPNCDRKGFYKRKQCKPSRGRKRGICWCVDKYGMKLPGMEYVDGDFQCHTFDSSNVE
Binding of IGFBP-3 on VN-peptide array (positive spot or not) (IGFBP-3),Binding of IGFBP-5 on VN-peptide array (positive spot or not) (IGFBP-5),Binding of IGF-II on VN-peptide array (positive spot or not) (IGF-II),Sequence,Inhibition of TRI-stimulated MCF-7 cell migration (MCF-7 cells; [1]),"Inhibition of TRI-stimulated MCF-7 cell migration (MCF-7 cells; 30 nM peptide dose, TRI 10 nM, 15 hours (most significant inhibition))"
did not show any binding,did not show any binding,did not show any binding,"KTYLFKGSQYWRFEDG [Neg, reference compound]",no inhibition of cell migration was observed,
does not bind,does not bind,binds,"LFSSEESNLGANNYDDYRMDWL (listed as Homo sapiens) [Peptide P7, human VN motif 7 mimic]",dose dependent inhibition,returned to the ‘VN only’ treatment levels
